Source: PMC11228396

Biological target: Stabilized soluble Omicron BA.1 spike (SARS-CoV-2)
Assay: cryo-EM structure

**Q.** Which stoichiometry N does the source give for “Stabilized soluble Omicron BA.1 spike (domain or fragment)” here?
**A.** 3
